According to US20190225669A1 (ACCELERON PHARMA, published 2019):

What was measured:
Assay in all cases: Biacore SPR
[1] = target: T1, GDF8 (UniProt O14793 267-375)
T1 construct: also called myostatin
T1 sequence (looked up): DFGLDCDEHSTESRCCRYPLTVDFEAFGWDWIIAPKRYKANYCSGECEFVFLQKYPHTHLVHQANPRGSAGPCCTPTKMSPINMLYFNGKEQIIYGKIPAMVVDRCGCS
Description: (§1) Ligands were injected and allowed to flow over the captured receptor protein.

[2] = target: T2, BMP10 (UniProt O95393 317-424)
T2 sequence (looked up): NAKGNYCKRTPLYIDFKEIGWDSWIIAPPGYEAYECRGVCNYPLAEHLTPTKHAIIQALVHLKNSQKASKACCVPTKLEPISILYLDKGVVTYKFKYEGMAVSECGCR
Description: as §1

[3] = target: T3, GDF11 (UniProt O95390 299-407)
T3 construct: also called BMP11
T3 sequence (looked up): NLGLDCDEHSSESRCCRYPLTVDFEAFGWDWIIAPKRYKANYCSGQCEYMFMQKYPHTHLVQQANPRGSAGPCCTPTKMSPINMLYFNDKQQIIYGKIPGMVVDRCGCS
Description: as §1

[4] = target: T4, GDF3 (UniProt Q9NR23 251-364)
T4 sequence (looked up): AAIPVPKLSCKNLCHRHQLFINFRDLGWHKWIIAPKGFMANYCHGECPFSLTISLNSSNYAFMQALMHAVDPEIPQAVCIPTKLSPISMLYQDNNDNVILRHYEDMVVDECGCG
Description: as §1

[5] = target: T5, BMP9 (UniProt Q9UK05 320-429)
T5 construct: also called GDF2
T5 sequence (looked up): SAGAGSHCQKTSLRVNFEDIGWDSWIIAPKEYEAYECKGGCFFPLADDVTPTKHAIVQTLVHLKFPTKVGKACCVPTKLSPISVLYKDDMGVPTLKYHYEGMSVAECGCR
Description: as §1

[6] = target: T6, activin B (UniProt P09529 293-407)
T6 sequence (looked up): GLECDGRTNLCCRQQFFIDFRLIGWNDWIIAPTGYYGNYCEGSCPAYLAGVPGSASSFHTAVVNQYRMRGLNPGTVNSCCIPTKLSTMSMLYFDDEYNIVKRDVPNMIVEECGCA
Description: as §1

[7] = target: T7, BMP6 (UniProt P22004 382-513, limits assumed)
T7 sequence (looked up): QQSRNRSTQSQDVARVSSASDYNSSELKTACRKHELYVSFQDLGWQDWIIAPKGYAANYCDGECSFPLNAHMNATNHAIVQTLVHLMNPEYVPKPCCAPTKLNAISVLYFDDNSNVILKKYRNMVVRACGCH
Description: as §1

[8] = target: T8, TGFβ1 (human, UniProt P01137 279-390)
T8 construct: Human (PeproTech) is stated for the A549 reporter assay; also called TGF-beta1
Description: (§2) The heteromeric or homomeric protein complexes were independently captured onto the system using an anti-Fc antibody. Ligands were injected and allowed to flow over the captured receptor protein.

[9] = target: T9, TGFβ2 (human, UniProt P61812 303-414)
T9 construct: Human (PeproTech) is stated for the A549 reporter assay; also called TGF-beta2
T9 sequence (looked up): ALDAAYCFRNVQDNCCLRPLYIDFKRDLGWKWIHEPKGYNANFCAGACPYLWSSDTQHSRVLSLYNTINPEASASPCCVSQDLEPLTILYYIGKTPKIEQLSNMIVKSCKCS
Description: as §2

[10] = target: T10, TGFβ3 (human, UniProt P10600 301-412)
T10 construct: Human (PeproTech) is stated for the A549 reporter assay; also called TGF-beta3
T10 sequence (looked up): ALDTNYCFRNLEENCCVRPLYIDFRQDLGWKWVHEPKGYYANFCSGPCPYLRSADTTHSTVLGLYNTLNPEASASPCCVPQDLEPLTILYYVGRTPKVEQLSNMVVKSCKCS
Description: as §2

Measured: binding result

T8 sequence (P01137 279-390 limits assumed): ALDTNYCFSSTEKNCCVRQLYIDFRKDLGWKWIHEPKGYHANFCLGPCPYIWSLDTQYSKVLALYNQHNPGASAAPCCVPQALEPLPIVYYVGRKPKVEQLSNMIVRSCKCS

B1: ALK5-Fc homodimer (Fc fusion, UniProt P36897 34-126, looked up, not shown: a dimerising Fc or GST)
chain: LQCFCHLCTKDNFTCVTDGLCFVSVTETTDKVIHNSMCIAEIDLIPRDRPFVCAPSSKTGSVTTTYCCNQDHCNKIELPTTVKSSPGLGPVEL
notes: extracellular domain
no binding: all assays above
